Results: patent publication US20240216430A1 (ALLOGENE THERAPEUTICS, published 2024)

T1: msCLDN18.1
T1 chain: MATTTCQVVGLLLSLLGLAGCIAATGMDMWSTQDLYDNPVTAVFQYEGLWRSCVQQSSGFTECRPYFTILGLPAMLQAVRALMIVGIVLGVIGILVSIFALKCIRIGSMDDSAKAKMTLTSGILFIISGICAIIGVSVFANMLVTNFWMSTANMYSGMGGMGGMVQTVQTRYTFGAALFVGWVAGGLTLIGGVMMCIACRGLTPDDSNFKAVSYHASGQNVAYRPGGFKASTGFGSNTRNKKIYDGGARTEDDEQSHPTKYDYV

B1: anti-Claudin 18.2 scFv-hIgG2Fc, clone 12H6 (Fc fusion)
chain: EVQLVESGGGLVQPGGSLRLSCAASGFTFSRYWMSWVRQAPGKGLEWVANIKHDGSEKYYVDSVKGRFTFSRDNAKTSLYLQMNSLRVEDTALYYCARYYGGPFDYWGQGTLVTVSSGGGGSGGGGSGGGGSGGGGSEIVLTQSPGTLSLSPGERATLSCRASQSVRSSYLAWYQQKPGQAPRLLIFGASSRATGIPDRFSGSGSGTDFTLTISRLEPEDFAVYYCQQFGSSLTFGGGTKVEIK
notes: linker and orientation in the Fc fusion are not restated; not shown: human IgG2 Fc (hIgG2Fc)
B2: anti-Claudin 18.2 scFv-hIgG2Fc, clone 2A10 (Fc fusion)
chain: QVQLQESGPGLVKPSETLSLTCTVSAGSISSYYWNWIRQPAGKGLEWIGRIYTSGSTNYNPSLRSRVTMSVDTSKNQFSLKLSSVTATDTAVYYCASASYTYFDSFDIWGQGTMVTVSSGGGGSGGGGSGGGGSGGGGSDIQLTQSPSFLSASVGDRVTITCRASQDIRNFLAWYQQKPGKAPKLLIYAASTLQSGVPSRFSGSGSGTEFALTVSSLQPEDFATYYCQQVNSYPRTFGQGTKVEIK
notes: as for B1
B3: anti-Claudin 18.2 scFv-hIgG2Fc, clone 9G2 (Fc fusion)
chain: EVHLLESGGGLVQPWGSLTLSCAASGFTFSNYAMNWVRQAPGKGLEWVSGISGSGGSTYDADSVKGRFTISRDNSKNTLFLQMNSPRAEDTAVYYCATQGYSFGYFESWGQGTLVTVSSGGGGSGGGGSGGGGSGGGGSEIVLTQSPATLSLSPGERATLSCRASQNVNRYLAWYHQKPGQAPRLLIYDAFNRATGIPARFSGSGSGTDFTLTINSLEPEDFAVYYCQQRSDWPLTFGGGTKLEIK
notes: as for B1

Biological target: T1, msCLDN18.1
Experiment: flow cytometry on HEK-293T overexpressing mouse Claudin 18.1; 5 µg/mL scFv-hIgG2Fc, detected with PE anti-human IgG Fcγ
Procedure: The stained samples were analyzed by flow cytometry.

Binding result, binds:
B1
B2
B3
